The source of these data is article PMC5839545 (2018).

This assay has as its target CENP-T (Homo sapiens, UniProt Q96BT3). The assay is described as follows: SW-FCCS.

CENP-T, sequence (Q96BT3 whole entry): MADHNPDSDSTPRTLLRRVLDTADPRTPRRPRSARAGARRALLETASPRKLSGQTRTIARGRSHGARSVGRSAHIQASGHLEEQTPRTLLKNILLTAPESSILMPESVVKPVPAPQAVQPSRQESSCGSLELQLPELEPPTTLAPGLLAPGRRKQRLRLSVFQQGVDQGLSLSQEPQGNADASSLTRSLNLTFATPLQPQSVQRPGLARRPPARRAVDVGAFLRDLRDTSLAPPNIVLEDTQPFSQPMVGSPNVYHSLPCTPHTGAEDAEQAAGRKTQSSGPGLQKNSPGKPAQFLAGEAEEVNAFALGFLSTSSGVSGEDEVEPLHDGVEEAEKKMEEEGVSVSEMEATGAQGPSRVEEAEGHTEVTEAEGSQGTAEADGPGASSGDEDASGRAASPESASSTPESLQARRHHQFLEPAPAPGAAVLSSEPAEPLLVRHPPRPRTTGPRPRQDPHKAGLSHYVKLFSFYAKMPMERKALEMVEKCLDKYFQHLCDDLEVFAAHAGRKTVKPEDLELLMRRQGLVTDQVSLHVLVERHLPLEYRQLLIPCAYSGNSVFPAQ

B1: Spc24 (protein)
chain: MAAFRDIEEVSQGLLSLLGANRAEAQQRRLLGRHEQVVERLLETQDGAEKQLREILTMEKEVAQSLLNAKEQVHQGGVELQQLEAGLQEAGEEDTRLKASLLQLTRELEELKEIEADLERQEKEVDEDTTVTIPSAVYVAQLYHQVSKIEWDYECEPGMVKGIHHGPSVAQPIHLDSTQLSRKFISDYLWSLVDTEW
In the case of B1, binding was put at a Kd of 1800 nM.
